{"source": "patent US11058644", "about": "(WISCONSIN ALUMNI RESEARCH FOUNDATION, dated 2021)", "target": "T1, epidermal growth factor receptor (EGFR) (UniProt P00533 25-1210, limits assumed)", "T1 construct": "whole, on cells; Endogenous receptor on MDA-MB-468 cells", "test": "blocking of Cy5-NP uptake on MDA-MB-468 cells by 2 uM free GE11, fluorescence microscopy", "experimental": "Cellular Uptake. The cellular uptake behaviors of the NPs in MDA-MB-468 TNBC cell lines were analyzed using a fluorescence microscope based on the Cy5 dye conjugated on the NPs. Cells were seeded (1×10^5 cells/ml) onto 8-well high-optical-quality plates and grown overnight. Cells were treated with either non-targeted NPs, targeted NPs, or targeted NPs with free GE11 peptide (2 µM; blocking assay) at an NP concentration of 100 µg/ml. After 2 h incubation, cells were washed with PBS twice, fixed with 4% PFA, and stained with DAPI for 4 h. Then the cells were mounted with Prolong Gold anti-fade reagent. The cellular uptake was observed using a fluorescence microscope (Nikon, Melville, N.Y.). Digital monochromatic images were acquired using NIS-Elements BR Software.\nIn Vitro Cellular Uptake. EGFR is overexpressed in many common types of cancer. Here, an EGFR targeting peptide, GE11, was used as an active-tumor-targeting ligand to enhance cellular uptake. MDA-MB-468, a TNBC cell line that overexpresses EGFR, was used as the model cell line. Cells were incubated with either non-targeted (i.e., NPs without GE11 conjugation) or targeted (i.e., GE11 conjugated) NPs for 2 h. Cells without any treatment were used as a negative control. Cy5 was conjugated onto the NPs. Fluorescence imaging analysis was performed to compare cellular uptake. […]", "data": [{"binder": "YHWYGYTPQNVIGGGGC (also called free GE11; EGFR targeting peptide)", "note": "[GE11 peptide (YHWYGYTPQNVIGGGGC)]", "values": [{"measurement": "binding result", "value": "binds"}]}]}
